Assay results as given in patent US20100248359A1 (Chugai, published 2010).
Changes are numbered by the printed parent chain. Names may count otherwise. Read-outs that look alike come from different tables or passages of the source.

What was measured:
[1] = target: T1, soluble form of GPC3 core protein (human, UniProt P51654 25-563); assay: ELISA on plate coated with soluble GPC3 core protein; antibody from COS7 culture supernatant [middle left panel]
T1 construct: not shown: His tag added to the C-terminus

full-length human GPC3 [2] = target: T2, full-length human GPC3 (human, UniProt P51654 25-554); assay: flow cytometry, antibody at 5 µg/mL, HuH-7 cells
T2 construct: On CHO (DXB11) or SK-HEP-1 (SK-03) transfectants; also used here for the GPC3 on the hepatoma lines HepG2 and HuH-7; also called human glypican 3
T2 sequence (P51654 25-554 limits assumed): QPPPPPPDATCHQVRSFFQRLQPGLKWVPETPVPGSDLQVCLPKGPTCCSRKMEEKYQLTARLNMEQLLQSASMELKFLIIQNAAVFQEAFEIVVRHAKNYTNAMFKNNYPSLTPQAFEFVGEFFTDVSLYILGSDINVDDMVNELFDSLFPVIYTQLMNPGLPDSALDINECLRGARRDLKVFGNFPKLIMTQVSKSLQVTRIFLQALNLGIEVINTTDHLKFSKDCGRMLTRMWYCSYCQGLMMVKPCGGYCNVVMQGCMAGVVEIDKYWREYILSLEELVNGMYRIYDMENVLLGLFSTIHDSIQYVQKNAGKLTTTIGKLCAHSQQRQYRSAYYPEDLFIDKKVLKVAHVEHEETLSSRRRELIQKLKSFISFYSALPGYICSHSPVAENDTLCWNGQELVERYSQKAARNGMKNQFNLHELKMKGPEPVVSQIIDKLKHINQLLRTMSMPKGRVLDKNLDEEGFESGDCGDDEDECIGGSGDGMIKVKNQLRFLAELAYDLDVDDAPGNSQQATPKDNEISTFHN

[3] = target: T3, GC-3 (GST fusion of GPC3 Ala524 to Lys563) (human, UniProt P51654 524-563); assay: Western blotting of GST-fusion proteins
T3 construct: not shown: GST as encoded by pGEX-4T-3 (Amersham), N-terminal to the GPC3 peptide
T3 chain: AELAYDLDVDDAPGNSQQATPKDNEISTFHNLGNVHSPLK

full-length human GPC3 [4] = target: T2, full-length human GPC3; assay: flow cytometry, antibody at 5 µg/mL, CHO cells expressing human GPC3 (column CHO/human GPC3)
full-length human GPC3 [5] = target: T2, full-length human GPC3; assay: flow cytometry, antibody at 5 µg/mL, HepG2 cells
[6] = target: T1, soluble form of GPC3 core protein; assay: ELISA on plate coated with soluble GPC3 core protein
[7] = target: T1, soluble form of GPC3 core protein; assay: ELISA on plate coated with soluble GPC3 core protein; antibody from COS7 culture supernatant [lower left panel]
[8] = target: T1, soluble form of GPC3 core protein; assay: ELISA on plate coated with soluble GPC3 core protein; antibody from COS7 culture supernatant [upper right panel]
[9] = target: T1, soluble form of GPC3 core protein; assay: ELISA on GPC3 (the legend says only GPC3; the filing's ELISA uses plates coated with soluble GPC3 core protein) [lower panel]
full-length human GPC3 [10] = target: T2, full-length human GPC3; assay: BIACORE; the form of GPC3 used is not given
[11] = target: T1, soluble form of GPC3 core protein; assay: ELISA on plate coated with soluble GPC3 core protein; remark: listed apart in the source
[12] = target: T1, soluble form of GPC3 core protein; assay: competitive ELISA on coated soluble GPC3 core protein; labelled competitor biotin-M3C11;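 note: Biotin-labelled antibody added as 10 µL at 10 µg/mL for 1 h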
full-length human GPC3 [13] = target: T2, full-length human GPC3; assay: flow cytometry, antibody at 5 µg/mL, HuH-7 cells; remark: listed apart in the source
[14] = target: T1, soluble form of GPC3 core protein; assay: competitive ELISA on coated soluble GPC3 core protein; labelled competitor biotin-M18D4;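 note: Biotin-labelled antibody added as 10 µL at 10 µg/mL for 1 h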
[15] = target: T3, GC-3 (GST fusion of GPC3 Ala524 to …); assay: Western blotting of GST-fusion proteins, reducing SDS-PAGE
[16] = target: T1, soluble form of GPC3 core protein; assay: competitive ELISA on coated soluble GPC3 core protein; labelled competitor biotin-M10D2;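 note: Biotin-labelled antibody added as 10 µL at 10 µg/mL for 1 h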
[17] = target: T1, soluble form of GPC3 core protein; assay: competitive ELISA on coated soluble GPC3 core protein; labelled competitor biotin-M6B1;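 note: Biotin-labelled antibody added as 10 µL at 10 µg/mL for 1 h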
full-length human GPC3 [18] = target: T2, full-length human GPC3; assay: flow cytometry, antibody at 5 µg/mL, CHO cells expressing human GPC3 (column CHO/human GPC3); remark: listed apart in the source
[19] = target: T1, soluble form of GPC3 core protein; assay: competitive ELISA on coated soluble GPC3 core protein; labelled competitor biotin-M5B9;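 note: Biotin-labelled antibody added as 10 µL at 10 µg/mL for 1 h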
full-length human GPC3 [20] = target: T2, full-length human GPC3; assay: flow cytometry, antibody at 5 µg/mL, HepG2 cells; remark: listed apart in the source
[21] = target: T1, soluble form of GPC3 core protein; assay: competitive ELISA on coated soluble GPC3 core protein; labelled competitor biotin-L9G11;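 note: Biotin-labelled antibody added as 10 µL at 10 µg/mL for 1 h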
[22] = target: T1, soluble form of GPC3 core protein; assay: competitive ELISA on coated soluble GPC3 core protein; labelled competitor biotin-M1E7;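 note: Biotin-labelled antibody added as 10 µL at 10 µg/mL for 1 h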
[23] = target: T1, soluble form of GPC3 core protein; assay: competitive ELISA on coated soluble GPC3 core protein; labelled competitor biotin-M11F1;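 note: Biotin-labelled antibody added as 10 µL at 10 µg/mL for 1 h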

B1: G34P (antibody, V domains shown)
VH: QVQLVQSGAEVKKPGASVKVSCKASGYTFTDYEMHWVRQAPGQGLEWMGALDPKTGDTAYSQKFKGRVTLTADKSTSTAYMELSSLTSEDTAVYYCTRFYSYTYWGQGTLVTVSS
VL: DVVMTQSPLSLPVTPGEPASISCRSSQSLVHSNPNTYLHWYLQKPGQSPQLLIYKVSNRFSGVPDRFSGSGSGTDFTLKISRVEAEDVGVYYCSQNTHVPPTFGQGTKLEIK
notes: also called modified humanized GC33 (H chain ver.k, L chain G34P)
[1]
  EC50 (read off the curve): ~30 ng/mL

B2: GC33 (antibody, V domains shown)
VH: QVQLQQSGAELVRPGASVKLSCKASGYTFTDYEMHWVKQTPVHGLKWIGALDPKTGDTAYSQKFKGKATLTADKSSSTAYMELRSLTSEDSAVYYCTRFYSYTYWGQGTLVTVSA
VL: B1 VL with S7T, T14S, P15L, E17D, P18Q, P34G, Q50K, V88L, Y92F, Q105S
notes: Mouse monoclonal from a mouse immunized with GC-3; also called GC33 antibody
full-length human GPC3 [2]
  FACS X-mode value of the histogram: 8.4
[3]
  binding result: binds
full-length human GPC3 [4]
  FACS X-mode value of the histogram: 82.7
full-length human GPC3 [5]
  FACS X-mode value of the histogram: 52
[6]
  EC50: 0.24 nM

B3: modified humanized GC33 (H chain ver.k, L chain G34Q) (antibody, human IgG1, V domains shown)
VH: B1 VH
VL: B1 VL with P34Q
notes: COS7 supernatant; human IgG1/kappa
[1]
  EC50 (read off the curve): ~20 ng/mL

B4: G34V (antibody, V domains shown)
VH: B1 VH
VL: B1 VL with P34V
notes: also called modified humanized GC33 (H chain ver.k, L chain G34V)
[7]
  EC50 (read off the curve): ~20 ng/mL

B5: modified humanized GC33 (H chain ver.k, L chain G34E) (antibody, human IgG1, V domains shown)
VH: B1 VH
VL: B1 VL with P34E
notes: as for B3
[8]
  EC50 (read off the curve): ~20 ng/mL

B6: GC33 mouse H chain variable region / humanized L chain ver.a (antibody, V domains shown)
VH: B2 VH
VL: B1 VL with P34G
notes: also called mouse/ver.a
[9]
  EC50 (read off the curve): ~30 ng/mL

B7: modified humanized GC33 (H chain ver.k, L chain G34N) (antibody, human IgG1, V domains shown)
VH: B1 VH
VL: B1 VL with P34N
notes: as for B3
[1]
  EC50 (read off the curve): ~20 ng/mL

B8: modified humanized GC33 (H chain ver.k, L chain G34W) (antibody, human IgG1, V domains shown)
VH: B1 VH
VL: B1 VL with P34W
notes: as for B3
[7]
  EC50 (read off the curve): ~20 ng/mL

B9: humanized GC33 H chain ver.i / L chain ver.a (antibody, V domains shown)
VH: B1 VH with K74E, T87R
VL: B1 VL with P34G
[9]
  EC50 (read off the curve): ~30 ng/mL

B10: modified humanized GC33 (H chain ver.k, L chain G34F) (antibody, human IgG1, V domains shown)
VH: B1 VH
VL: B1 VL with P34F
notes: as for B3
[8]
  EC50 (read off the curve): ~20 ng/mL

B11: modified humanized GC33 (H chain ver.k, L chain G34H) (antibody, human IgG1, V domains shown)
VH: B1 VH
VL: B1 VL with P34H
notes: as for B3
[8]
  EC50 (read off the curve): ~20 ng/mL

B12: modified humanized GC33 (H chain ver.k, L chain G34Y) (antibody, human IgG1, V domains shown)
VH: B1 VH
VL: B1 VL with P34Y
notes: as for B3
[7]
  EC50 (read off the curve): ~20 ng/mL

B13: humanized GC33 H chain ver.h / L chain ver.a (antibody, V domains shown)
VH: B1 VH with Q6E
VL: B1 VL with P34G
[9]
  EC50 (read off the curve): ~30 ng/mL

B14: M3C11 (antibody, human IgG1, kappa, V domains shown)
VH: EVQLVESGGGLVKPGGSLKLSCAASGFTFSRYAMSWVRQIPEKILEWVAAIDSSGGDTYYLDTVKDRFTISRDNANNTLHLQMRSLRSEDTALYYCVRQGGAYWGQGTLVTVSA
VL: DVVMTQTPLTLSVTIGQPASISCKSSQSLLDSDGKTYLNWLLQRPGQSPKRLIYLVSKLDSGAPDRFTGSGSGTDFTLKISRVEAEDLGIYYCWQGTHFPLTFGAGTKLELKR
notes: Mouse monoclonal from hybridoma
full-length human GPC3 [10]
  Kd: 0.3 nM
  koff: 6.5e-05 s⁻¹
  kon: 250000 M⁻¹ s⁻¹
[11]
  EC50: 0.12 nM
[12]
  Inhibition of the binding of indicated biotin-Mab to sGPC3 core (%): 96.8%
full-length human GPC3 [13]
  FACS X-mode value of the histogram: 9
[14]
  Inhibition of the binding of indicated biotin-Mab to sGPC3 core (%): 10.3%
[15]
  binding result: no binding
[16]
  Inhibition of the binding of indicated biotin-Mab to sGPC3 core (%): 39.9%
[17]
  Inhibition of the binding of indicated biotin-Mab to sGPC3 core (%): 11.2%
full-length human GPC3 [18]
  FACS X-mode value of the histogram: 83
[19]
  Inhibition of the binding of indicated biotin-Mab to sGPC3 core (%): 9.1%
full-length human GPC3 [20]
  FACS X-mode value of the histogram: 59
[21]
  Inhibition of the binding of indicated biotin-Mab to sGPC3 core (%): 33.1%
[22]
  Inhibition of the binding of indicated biotin-Mab to sGPC3 core (%): 96.2%
[23]
  Inhibition of the binding of indicated biotin-Mab to sGPC3 core (%): 12%

B15: GC199 (antibody, V domains shown)
VH: QIQLEQSGPELKKPGETVKISCKASGYIFRDYSMHWVKQAPGKGLKWMGWINTETGEPTYADDFKGRFAFSLETSASTAYLQINNLKNEDTATYFCTSLYWGQGTLVTVSA
VL: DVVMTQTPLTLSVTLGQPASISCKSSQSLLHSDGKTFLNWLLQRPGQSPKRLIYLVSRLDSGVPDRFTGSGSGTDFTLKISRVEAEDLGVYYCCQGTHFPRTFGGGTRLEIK
notes: Mouse monoclonal from a mouse immunized with GC-3; also called GC199 antibody
full-length human GPC3 [2]
  FACS X-mode value of the histogram: 2.4
[3]
  binding result: binds
full-length human GPC3 [4]
  FACS X-mode value of the histogram: 15.5
full-length human GPC3 [5]
  FACS X-mode value of the histogram: 12.2
[6]
  EC50: 0.1 nM

B16: GC194 (antibody, V domains shown)
VH: EVQLVETGGGLVQPKGSLKLSCAASGFTFNASAMNWVRQAPGKGLEWVARIRSKSNNYAIYYADSVKDRFTISRDDSQSMLYLQMNNLKTEDTAMYYCVRDPGYYGNPWFAYWGQGTLVTVSA
VL: DIVMTQAAFSNPVTLGTSASISCRSSKSLLHSYDITYLYWYLQKPGQSPQLLIYQMSNLASGVPDRFSSSGSGTDFTLRISRVEAEDVGVYYCAQNLELPPTFGGGTKLEIK
full-length human GPC3 [2]
  FACS X-mode value of the histogram: 1.5
full-length human GPC3 [4]
  FACS X-mode value of the histogram: 5
full-length human GPC3 [5]
  FACS X-mode value of the histogram: 7.9
[6]
  EC50: 3.83 nM
